Assay results: PMC7508885

Tested on: N[C@@H](Cc1ccc(O)cc1)C(=O)O
Assay: ATP:PPi exchange reaction
Assay type: biochemical, Pseudomonas aeruginosa
Details: other: other substrate (Tyr or ATP) held at 2 mM; enzyme 0.4 μM; pH 7.5; 37.0 °C

Substance “P. aeruginosa TyrRS-Z (Pseudomonas aeruginosa PAO1)” has a Km of 29 µM and a kcat of 3.1 s⁻¹.

“P. aeruginosa TyrRS-S (Pseudomonas aeruginosa PAO1)” was tested, and the Km was 172 µM and the kcat was 3.8 s⁻¹.
